Article PMC4072508, “Genome-Wide Prediction and Validation of Peptides That Bind Human Prosurvival Bcl-2 Proteins” (PLoS Computational Biology, 2014)

T1: Mcl-1, Q07820
T1 chain: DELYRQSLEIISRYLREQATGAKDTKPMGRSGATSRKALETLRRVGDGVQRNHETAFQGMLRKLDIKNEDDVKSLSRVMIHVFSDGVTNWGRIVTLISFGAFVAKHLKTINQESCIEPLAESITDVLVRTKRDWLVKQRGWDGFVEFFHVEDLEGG


Target: T1, Mcl-1, Q07820
Test: peptide SPOT array, c-Myc-tagged receptor at 1 uM or 100 nM, anti-c-Myc-Cy3

| SPOT signal as a fraction of Bim BH3's signal on the same receptor and array | Binder |
| --- | --- |
| 0.02 | SKFVILSAHKLVFILDTLSRQAKAAD [BCAR1] |
| 0.03 | RLAHEHHCLRIKILLDCYYCVSGLPE [ADCY8] |
| 0.94 | GLTWDPVGKYIASQADDRSLKVWRTL [HIRA] |
| 0.02 | KKCQDMIMTELTNALDDVVVFYNDKA [ITPR3] |
| 0.06 | SQGDKRVAFFMRKGADCLSKWVGESE |
| 0.01 | TPSRSALSSELSLVGDTTGDTLEKFV [CREBBP] |
| 0.02 | SQGDKRVAFFDRKGADCLSKWVGESE |
| 0.08 | QQMHHNAATAMAQRLDMLRGLSPRES [NCOR2] |
| 0.01 | SPYVFNGGTIDAIAGEDFAIVASDTR [PSMB1] |
| 0.02 | SKFVILSAHKDVFIGDTLTRQVTAQD [NEDD9] |
| 0.01 | CALIAGATLHVAWLLDSQVILVQQGQ [PPM1F] |
| 0.05 | NKRHRPIGIGVQGLLDAFILMRYPFE |
| 0.02 | SHALICISHWILGIGDRHLNNFMVAM [PRKDC] |
| 0.03 | RIEMWISILELNELLEYAAVELHQAK |
| 0.01 | LSPGRSVTAGIIIVLDEILKGHTQDT [FLAD1] |
| 0.01 | DSLAKFAGRKDKDCGEDLLVEISEVL [PCM1] |
| 0.01 | RCELQICGLAMADAGEYLCVCGQERT [OBSCN] |
| 0.01 | VDFYQPTCIVLQCGLDSLGCDRLGCF [HDAC3] |
| 0.02 | NKRHRPIGIGDQGLADAFILMRYPFE |
| 0.01 | IGFFIAFGIADGKMGDQAKLMVDFFN |
| 0.03 | AICIEEIGVWDKMYSDAFLNDSYLKY |

| SPOT signal as a fraction of Bim BH3's signal on the same receptor and array | Binder |
| --- | --- |
| 0.03 | KNIAGALAFWMANASELLNFIKQDRD [MLLT4] |
| 0.03 | AICIEEIGVWMKMYLDAFLNDSYLKY |
| 0.02 | QLSKPGAALYDQSIGEGFKEAVQYVL [SOS1] |
| 0.02 | VLSRIEAGRSDKSVADEFGISKSTFY [TIGD7_3eA] |
| 0.12 | GSGLHGWAFTLKQFLEMYVAKFAAKG [EEF2] |
| 0.01 | PSLSKELTSSLAGVGDVSFDSDSQFP [CRTC1] |
| 0.02 | FRLAQMCGLHDVVHADELEELINYYQ [CLTC] |
| 0.18 | NKSLTTLGLVISSLLDQAAGKGKSKF |
| 0.02 | DLSAVTLSRELQAMLEQLAENYHNTW [RYR1] |
| 0.01 | IQQDLGCGASLGVISDNLLVTGGQGC [SCAP] |
| 0.02 | AFTEREASEIMKSIGEAIQYLHSINI [MAPKAPK2] |
| 0.01 | SALETQVAAAVQALADDYLAQLSLEP [TRO] |
| 0.04 | CDLLGAKGKDDLYIGDHIFGDILKSK [NT5C2] |
| 0.04 | LRVSTKIGSCMKSVGEVMGIGRSFEE [CAD] |
| 0.01 | ERAISCMGQIICNLLDNLGSDLPNTL [CAND1] |
| 0.19 | NKSLTTLGLVDSSLADQAAGKGKSKF |
| 0.12 | CILNSFYGYVMRKGARWYSMEMAGIV [POLE] |
| 0.02 | RDPQGWVAGNDSARGDGAAGFTLPGF [MST1R] |
| 0.03 | IGFFIAFGIAMGKMLDQAKLMVDFFN |
| 0.01 | DVGTGAGLLEIKKIGDEYFTFITDCK [CCT3] |

Target: Bcl-xL, Q07817
Sequence (Q07817 1-209): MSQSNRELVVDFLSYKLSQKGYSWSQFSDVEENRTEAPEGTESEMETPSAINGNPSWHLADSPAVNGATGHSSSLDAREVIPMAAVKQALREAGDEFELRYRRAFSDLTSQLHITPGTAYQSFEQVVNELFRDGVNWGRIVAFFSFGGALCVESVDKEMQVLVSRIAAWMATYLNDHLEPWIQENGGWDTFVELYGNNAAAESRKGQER
Test: as above

| SPOT signal as a fraction of Bim BH3's signal on the same receptor and array | Binder |
| --- | --- |
| 0.07 | SKFVILSAHKLVFILDTLSRQAKAAD [BCAR1] |
| 0.02 | RLAHEHHCLRIKILLDCYYCVSGLPE [ADCY8] |
| 0.81 | GLTWDPVGKYIASQADDRSLKVWRTL [HIRA] |
| 0.02 | KKCQDMIMTELTNALDDVVVFYNDKA [ITPR3] |
| 0.13 | SQGDKRVAFFMRKGADCLSKWVGESE |
| 0.02 | TPSRSALSSELSLVGDTTGDTLEKFV [CREBBP] |
| 0.02 | SQGDKRVAFFDRKGADCLSKWVGESE |
| 0.13 | QQMHHNAATAMAQRLDMLRGLSPRES [NCOR2] |
| 0.01 | SPYVFNGGTIDAIAGEDFAIVASDTR [PSMB1] |
| 0.02 | SKFVILSAHKDVFIGDTLTRQVTAQD [NEDD9] |
| 0.02 | CALIAGATLHVAWLLDSQVILVQQGQ [PPM1F] |
| 0.04 | NKRHRPIGIGVQGLLDAFILMRYPFE |
| 0.02 | SHALICISHWILGIGDRHLNNFMVAM [PRKDC] |
| 0.02 | RIEMWISILELNELLEYAAVELHQAK |
| 0.01 | LSPGRSVTAGIIIVLDEILKGHTQDT [FLAD1] |
| 0.01 | DSLAKFAGRKDKDCGEDLLVEISEVL [PCM1] |
| 0.01 | RCELQICGLAMADAGEYLCVCGQERT [OBSCN] |
| 0.01 | VDFYQPTCIVLQCGLDSLGCDRLGCF [HDAC3] |
| 0.02 | NKRHRPIGIGDQGLADAFILMRYPFE |
| 0.02 | IGFFIAFGIADGKMGDQAKLMVDFFN |
| 0.05 | AICIEEIGVWDKMYSDAFLNDSYLKY |

| SPOT signal as a fraction of Bim BH3's signal on the same receptor and array | Binder |
| --- | --- |
| 0.03 | KNIAGALAFWMANASELLNFIKQDRD [MLLT4] |
| 0.02 | AICIEEIGVWMKMYLDAFLNDSYLKY |
| 0.02 | QLSKPGAALYDQSIGEGFKEAVQYVL [SOS1] |
| 0.02 | VLSRIEAGRSDKSVADEFGISKSTFY [TIGD7_3eA] |
| 0.25 | GSGLHGWAFTLKQFLEMYVAKFAAKG [EEF2] |
| 0.01 | PSLSKELTSSLAGVGDVSFDSDSQFP [CRTC1] |
| 0.02 | FRLAQMCGLHDVVHADELEELINYYQ [CLTC] |
| 0.26 | NKSLTTLGLVISSLLDQAAGKGKSKF |
| 0.02 | DLSAVTLSRELQAMLEQLAENYHNTW [RYR1] |
| 0.02 | IQQDLGCGASLGVISDNLLVTGGQGC [SCAP] |
| 0.02 | AFTEREASEIMKSIGEAIQYLHSINI [MAPKAPK2] |
| 0.01 | SALETQVAAAVQALADDYLAQLSLEP [TRO] |
| 0.02 | CDLLGAKGKDDLYIGDHIFGDILKSK [NT5C2] |
| 0.05 | LRVSTKIGSCMKSVGEVMGIGRSFEE [CAD] |
| 0.02 | ERAISCMGQIICNLLDNLGSDLPNTL [CAND1] |
| 0.29 | NKSLTTLGLVDSSLADQAAGKGKSKF |
| 0.18 | CILNSFYGYVMRKGARWYSMEMAGIV [POLE] |
| 0.01 | RDPQGWVAGNDSARGDGAAGFTLPGF [MST1R] |
| 0.03 | IGFFIAFGIAMGKMLDQAKLMVDFFN |
| 0.01 | DVGTGAGLLEIKKIGDEYFTFITDCK [CCT3] |
